What was measured:
purified protein [1] = substrate: Nc1ncnc2c1ncn2[C@@H]1O[C@H](COP(=O)(O)OP(=O)(O)O[C@H]2O[C@H](CO)[C@@H](O)[C@H](O)[C@H]2O)[C@@H](O)[C@H]1O; assay: purified protein; type: biochemical, Sulfolobus acidocaldarius; settings: glycosyl donor, G6P as acceptor (standard 10 mM), 10 mM MgCl2, 50 mM HEPES-KOH pH 7, 55°C
purified protein [2] = substrate: O=c1ccn([C@@H]2O[C@H](CO[P@@](=O)(O)O[P@@](=O)(O)O[C@H]3O[C@H](CO)[C@@H](O)[C@H](O)[C@H]3O)[C@@H](O)[C@H]2O)c(=O)[nH]1; assay: purified protein; type: biochemical, Sulfolobus acidocaldarius; settings: glycosyl donor, G6P as acceptor (standard 10 mM), 10 mM MgCl2, 50 mM HEPES-KOH pH 7, 55°C
[3] = molecular target: the molecule itself; assay: SEC; gel filtration under native conditions against SDS-PAGE under denaturing conditions; Superdex 200 HiLoad 26/60, 30 mM Tris-300 mM NaCl, pH 7

B1: trehalose-6-phosphate synthase (TPS, Saci_1249) of Sulfolobus acidocaldarius (enzyme, UniProt Q4J9D6 1-444, looked up)
chain: MFSVSISTQTPPVRFRYTYRDLMDKYGFFELPIELSQLDSSDYYFSVGGVPKMMLSLINKFNKVRWVSLGPGYPPQVKYGDQRLFDFIDLDPENLKNYTRYKEGIYNESHGIEKYEIKPSEYISYADYNWISAKKLLEFHNDSDVYFINDFQLLLVGGIIGPSAPAILWYHIPFVPENLSPRIRDFIVRSFEGYDYVILSTKRDLEGLLRIGAKINARQVYPFIDTSTLRRGSKGEVDKVKSKYNIGKDEKVITVVARMDPMKSQDVAIMALKKIKESNAKLLLVGNGSFTSGALGTNKAGNWVRKLQSLASNLGVDKKVVFTGHVSDEELNAIYEASDVIVLPSRIEGFGLVVCEGWFFEKPAIVSSGAGVSELVIDGSNGFVFKSGNYEELAEKIDIVLKEPDKYSRLSRDTVNKCNVEYAFNQLKDIFAQAMKDYGKNVNL
notes: Trehalose-6-phosphate synthase TPS (Saci_1249), Sulfolobus acidocaldarius; gene of 1,335 bp encoding 444 amino acids, calculated mass 50.3 kDa; amplified from genomic DNA with primers that run from the start codon to the stop codon, cloned into pET15b; The N-terminal His tag comes from pET15b; also called GT4-like TPS; source: E. coli BL21(DE3)-CodonPlus, purified …
Work on B1 yielded a Km (purified protein [1]) of 1800 µM, a Km (purified protein [2]) of 3800 µM and a kcat (purified protein [2]) of 4.9 s⁻¹. For the same protein, the “stoichiometry N” value [3] was 2.
